Test [1] addresses human 26S proteasome (human | human (endogenous in HEK293)) (UniProt O00487).
Test [2] shares this target. The source holds these as a separate data set.
The target is the same in test [3]. The test is described as follows: single-molecule TIRF microscopy.

Bounds are passed on as bounds.

B1: ZFAND5/ZNF216, recombinant wild type (natural protein)
chain: MAQETNQTPGPMLCSTGCGFYGNPRTNGMCSVCYKEHLQRQQNSGRMSPMGTASGSNSPTSDSASVQRADTSLNNCEGAAGSTSEKSRNVPVAALPVTQQMTEMSISREDKITTPKTEVSEPVVTQPSPSVSQPSTSQSEEKAPELPKPKKNRCFMCRKKVGLTGFDCRCGNLFCGLHRYSDKHNCPYDYKAEAAAKIRKENPVVVAEKIQRI
Consider B1, for which, in test [1], the increase of the initial (phase I) degradation rate of ubiquitylated cycB-cpGFP was found to be 24% and the increase of the late (phase II) degradation rate of ubiquitylated cycB-cpGFP stood at 71%. In test [2], this molecule showed a stimulation of peptide hydrolysis of purified 26S proteasome of less than 10 fold.

B2: His6-SNAP-ZFAND5wt (natural protein)
chain: MAQETNQTPGPMLCSTGCGFYGNPRTNGMCSVCYKEHLQRQQNSGRMSPMGTASGSNSPTSDSASVQRADTSLNNCEGAAGSTSEKSRNVPVAALPVTQQMTEMSISREDKITTPKTEVSEPVVTQPSPSVSQPSTSQSEEKAPELPKPKKNRCFMCRKKVGLTGFDCRCGNLFCGLHRYSDKHNCPYDYKAEAAAKIRKENPVVVAEKIQRI
modifications: SNAP tag labelled with SNAP-Surface 649 (fluorescent form) or with SNAP-Biotin (immobilised form)
In test [3], B2 returned a dwell-time constant, first (short-binding) exponential mode of 50 ms and a dwell-time constant, second (long-binding) exponential mode of 614 ms.

The values above are taken from publication doi:10.1101/2023.05.09.540094.
